According to the DeepSol protein solubility set:

Experiment: soluble on expression in E. coli; label from the status in PepcDB or PDB records

Sequence | soluble on expression in E. coli
ISVDTLNTKELIEAINLGADMILSVDAGNLDELIPYLKDSETAVVVLPTNYKTNYVPETIEGKIKSLEENIKKLIDAGIEKIVADPILEPINNAGCSFIESVIACREFKKRNKLPLFFGVGNVTELFDADSNGVNALLAAIGAEIGANILFTPEASAKCKFSIKELKIASKMMFLAKKRNSLPKDIGYNLINYKDKRFEEEITFNSYNIPIIKAEEDERQILDEGSFKIEIDRKNKEIVAIYFNKRREPVLIIRGKKPKEIYETAIRLNLIKKLDHASYFGRELAKAEIALRIGKKYNQDFDLF | not soluble
MTATITNKKSCSGSVEAGKTRLTTEWKPESQVPQYVKNELSKPHPNYILAFLNVVQQLKIQRRTGYLDLGIKECESISDHMYRLSIITMLIKDSRVNRDKCVRIALVHDIAESLVGDITPVDPIGKEEKHRREWETIKYLCNALIKPYNEIAAKEIMDDWLAYENVTSLEARYVKDIDKYEMLVQCFEYEREYKGTKNFDDFFGAVASIKTDEVKGWTSDLVVQRQKYFADLTQSITK | soluble
MESENQIAILDYIFNQVNQPNQPKIVWFSGEGEDEKINFLIRLNDFFKPKFVENTNDSSFLLSFRNHVETKNSTPLTQANFANIANKLLAVLFGSLQWKQLNK | not soluble
SIPYQEWHSQLQSLYDSQIFHNWALCQDVHLNDEKDGLLLRLIPTRQLQKNTERIENKLLNHIELYLTYSKVYNEPLLLLRIWEEKSIDGIPMTKLMLPTDIESLLDVQGKFQLGLDTIINLEGSVWYSFHPCDTSCIVGDQAEFMSTYLRRWVSIFIFSWLGYEDS | soluble
GPGSMMRRVGDYEILDVVGEGAYSKVKRVRHIPTGCMFVAKIVPKTNQQVENDVRLEISILRRLKHKNIVQLIEILESTNNYYIILEPVMGGDLCDIIVGMDRPLPEQDVAALLIQLVAGVRACHRNGVAHRDLKPENLLLGTDGVLKISDFGLSRLHRESNFQASTNEYAHTLTGTLAYLAPEVFGGSYDAFRADIWSMGCIAYVLLTQNFPFGSTTDPHALEVRIRNGEVSVMPSSVSAEAKNLCKWLLSPRPEDRPTLDAVAQHDFFKRYLPAEYLRMTANRKSPIVHGANMNEFSSQVQEEAPSCSPSTATAKRKHQYVRSGSAARTSPSSSAVAGAATSSNRSSESGRDREDLVSHGTQGESDPGGYCGDV | soluble
EGSIGNGLDLTGILFGNIDSEGRLLQDDDGEGRGGTGFDAELRENIGSLSKLGLDSMLLEVIDLKEA | soluble
MTEQLPNCPECGSAYAYEDRGLFICPECGHEWSPTEEVAEEGLVVKDSNGNLLADGDSVTVIKDLKVKGASGAIKQGTKVKNIRLVEGDHNIDCKVDGFGPMKLKSEFVKKN | not soluble
MADVPDQVDINVNVVEKPTGAIMFGAGYSDREGIILNGSIAQNNILGTGNFLSLQVNTGSVNKVISASFNNPYYTINGVSLGLEAFKRDINTRSLSSVGMFNTDTTGANIRFGIPVAENDIVSLGLGYEHTKIDLRDDSPQRFKDFVDQFGKTSNNLPITLSWARDRRNSAIWTTSGMTQRLFGEFGLPFGDLNYYKVSYEQRWFFPVTKMFTLMLNGEVGVGDGYSDKPLPFFKNFFAGGFNSVRGYNINTLGPRDSDDRVLGGSKRIVGNIEVLFPVPFMKEDKSVRLSAFADGGTIVNSFSGLGFDDFRYSAGLAATWISPMGPLKFSVAQPLNNQSGDKLQRFQFQFGQTFLEHHHHHH | soluble
MRIRIRVLSHFSSALGFDESSFSIGEGITFAELRSKLIEQFSAFVRPIEIGMYVNMKPVPDDYTMMDGDIVYVFPRSSTP | not soluble
MGSDKIHHHHHHMKLRSWEFYDRIARAYDSMYETPKWKLYHRLIGSFLEEYLKNPCRVLDLGGGTGKWSLFLQERGFEVVLVDPSKEMLEVAREKGVKNVVEAKAEDLPFPSGAFEAVLALGDVLSYVENKDKAFSEIRRVLVPDGLLIATVDNFYTFLQQMIEKDAWDQITRFLKTQTTSVGTTLFSFNSYAFKPEDLDSLEGFETVDIRGIGVMEYPDERISEREETIFRLEQELSRDRNIIWKADHIFFVLKKKRGA | soluble
MYKVDSPDAVDFINHQEIIETLEYARTHRNDRELIRNLIEKARLCKGLTHREAAILLECAEEDLTKEIFHLAKEIKQKFYGNRIVMFAPLYLSNYCVNGCVYCPYHLKNKTIIRKKLTQEEICREVIALQDMGHKRLALEAGEDPVRNSIDYILESIRTIYSIHHKNGAIRRVNVNIAATTVENYRKLKDAGIGTYILFQETYHKENYEQLHPTGPKSNYAYHTEAMDRAMQGGIDDVGMGVLFGLNTYRYDFVGLLMHAEHLEAVYGVGPHTISVPRICSADDINAEDFENAISDEIFQKIVAVIRISVPYTGMIISTRESQKTREKVLDLGISQISGGSRTSVGGYAEAETPEENSAQFDVSDTRTLDEVVNWLLKLGYIPSFCTACYRAGRTGDRFMSLVKSGQIANCCSPNALITLQEYLEDYASEETKARGVAMIKQEMQHIPNPKIRERALENLKQIAAGERDFRF | not soluble
MKRVALLAVGSFNPPTIAHLRMLEVARSHLETINTQVVEGIMSPVADSYNNKPTLIKSNFRIQMVRAATKSSDWIRADDWECTRTTWTRTIDVLRHHRELVQEKFGSDVGMMLVVGGDVVDSFTRILPDGSNLWNSSDIRTIITEFGLIVLSREGSNPLNTIQSMPAISEFCDRIIQVKDEVCPSGVSSTRLRAAIMNKKSIKYSTPDEVINFIRENNLYQKI | not soluble
MKMYADERREHIYSYIKSHKRATVKQLSDYLSVTEATVRSDLRRLESENKLTRTHGGAKVTENIGSKFNFSYRLTQKHGEKYKISKSALKKIKPQQCIMIDASSTTYELAKLLAETTMELTIITNGLENAVLLKENPHLTVLVVGGFVSQDSNAITGNIDSQILEMYHIDYFFLSANGFTLENGLTDFSLPEVQLKKQMVQESENVIALIDKSKFGVSSTLSFAKISDINEVITDEKPEHKWLKHVPFSVTVAQLEHHHHHH | soluble
MSLTQIENSQYRKHKQKQQHLQHSLTGESKTAIVVFSRSGNTATLSEHIAHKTNGHVYEIFAKSYALGIPGWINALKDARSNVAEIVPQHIDLSSYDTVYLGSPIWLYSPAPPFWQFVKDNDLTNKRVILFNSFNSKFEQHFIDEFAALARAKGATSFEHQYVKRGRMGDQLSTDEMLAAFDHLNPNEGHHHHHH | soluble
STFAYIANSESDNISVIDVTSNKVTATIPVGSNPMGAVISPDGTKVYVANAHSNDVSIIDTATNNVIATVPAGSSPQGVAVSPDGKQVYVTNMASSTLSVIDTTSNTVAGTVKTGKSPLGLALSPDGKKLYVTNNGDKTVSVINTVTKAVINTVSVGRSPKGIAVTPDGTKVYVANFDSMSISVIDTVTNSVIDTVKVEAAPSGIAVNPEGTKAYVTNVDKYFNTVSMIDTGTNKITARIPVGPDPAGIAVTPDGKKVYVALSFCNTVSVIDTATNTITATMAVGKNPYASGQFIGSIPVQPVYPSADFKSNITSGYIFLSEPVQFTDLSKDATEWKWDFGDGSSSKKQNPTHTYSETGIYTVRLTVSNSNGTDSQISTVNVVLKGSPTPS | soluble
MSFPAASIDLGTNTARLLIGSVEAGRIEHLLVKRHITRLGGGFTKERGISPEAWSRSLAALVDFADEMNRAGVVRVRAVATSAVRDAVNGGDFCADVAERTGISLEVIDGEEEALLTLAGVLSGLDRKEGRFFVFDVGGGSTEYTLASGNAPLYTESLPLGVVRLTEGKSDLPAMEEKVGRELAGLRERLAGRALDGQLAGATLVGTAGTATTLAAISLGMTDYDYRRVNNHLLSRDEIARILALLLPLSPAERLAVPGLEKGREDLIVAGTLITLATMDLFGFESMTVSDFGLLEGALIGLARTDELEHHHHHH | not soluble
MSEVNKKVQDGVDDYLEEEDFGQLLEAFDKSREEATTEGVIVEIKNDEVYVDIGKKSEGILALSEIQGDNSKLLFNVGDSIKVAVMGSRGGRSLLSHKKALRKEKVIEFIKNYQENQDDIFTVKVVGKNKGGLIVVDENDVEFFLPKSQYGFKETNNIIGKTFKVKIIKIDKDEQSIIVSRKKTLDDERRKRKELINNVAQQEDLIEGIVKKITTYGMFVDVGGVDGLVHYSEISYKGPVNPGTLYKEGDKVPVKVIKYDKERKHLSLSIKAALPDPWSEIKDTLDIGDTIKVIVSNIEPYGAFVDLGNDIEGFLHISEISWDKNIKNPKDYINKGQEIDVEVIEINPNERRLRVSLRNLLSRPFDEFMKSYKIADVVEGEITSVTSFGAFVKLGGIEGLLHNEDASWDRNDKCKDKFSQGDKIKVKIIKIDEENQKISLSTKELSSSPVQEYAKIHKVGDIVKGAIRDIKDFGVFVELSKNVDALIHKEDISTSMLENLKIGDDIEAAIVFIDEKKNRIRLSVKNLVRIKEREVLNEINNDDKVTLGDIIKDQLALEHHHHHH | soluble
NLHLLEYLHILPLDKIGIPKFAPKLDRKKHGDLDRPNLIYPADEQIYIHVYPDKNDMRNFYIPIEPTLLTGVDELLKEVEIRLVDYITDIDF | not soluble
MAHHHHHHMEIKTASKIVRRVSNVEAFDKSGSVFKGYQIWTDISPTIENDPNIMFVKCVVQQGSKKEKLTVVQIDPPGTGTPYDIDPTHAWNCNSQVDPMSFGDIGLLNHTNIPCVLDFLKHRYLKNQIYTTAVPLIVAINPYKDLGNTTNEWIRRYRDTADHTKLPPHVFTCAREALSNLHGVNKSQTIIVSGESGAGKTEATKQIMRYFASSKSGNMDLRIQTAIMAANPVLEAFGNAKTIRNNNSSRFGRFMQLVISHEGGIRYGSVVAFLLEKSRIITQDDNERSYHIFYQFLKGANSTMKSKFGLKGVTEYKLLNPNSTEVSGVDDVKDFEEVIESLKNMELSESDIEVIFSIVAGILTLGNVRLIEKQEAGLSDAAAIMDEDMGVFNKACELMYLDPELIKREILIKVTVAGGTKIEGRWNKNDAEVLKSSLCKAMYEKLFLWIIRHLNSRIEPEGGFKTFMGMLDIFGFEVFKNNSLEQLFINITNEMLQKNFVDIVFERESKLYKDEGISTAELKYTSNKEVINVLCEKGKSVLSYLEDQCLAPGGTDEKFVSSCATNLKENNKFTPAKVASNKNFIIQHTIGPIQYCAESFLLKNKDVLRGDLVEVIKDSPNPIVQQLFEGQVIEKGKIAKGSLIGSQFLNQLTSLMNLINSTEPHFIRCIKPNENKKPLEWCEPKILIQLHALSILEALVLRQLGYSYRRTFEEFLYQYKFVDIAAAEDSSVENQNKCVNILKLSGLSESMYKIGKSMVFLKQEGAKILTKIQREKLVEWENCVSVIEAAILKHKYKQKVNKNIPSLLRVQAHIRKKMVA | not soluble
MAPRKRSHHGLGFLCCFGGSDIPEINLRDNHPLQFMEFSSPISNAEELNIRFAELVDELDLTDKNREAMFALPPEKKWQIYCSKKKVPSLTPLATSQGSWHGVALAALACSCIHLMFITCQPCSRCWRNNSE | soluble
MRILGLDLGTKTLGVALSDEMGWTAQGIETIKINEAEGDYGLSRLSELIKDYTIDKIVLGFPKNMNGTVGPRGEASQTFAKVLETTYNVPVVLWDERLTTMAAEKMLIAADVSRQKRKKVIDKMAAVMILQGYLDSLNLEHHHHHH | not soluble
